Like-named read-outs stand apart in the source and are kept apart here.
T1: human c-Mpl (full length, on cells) (human, UniProt P40238 26-635)
T1 sequence: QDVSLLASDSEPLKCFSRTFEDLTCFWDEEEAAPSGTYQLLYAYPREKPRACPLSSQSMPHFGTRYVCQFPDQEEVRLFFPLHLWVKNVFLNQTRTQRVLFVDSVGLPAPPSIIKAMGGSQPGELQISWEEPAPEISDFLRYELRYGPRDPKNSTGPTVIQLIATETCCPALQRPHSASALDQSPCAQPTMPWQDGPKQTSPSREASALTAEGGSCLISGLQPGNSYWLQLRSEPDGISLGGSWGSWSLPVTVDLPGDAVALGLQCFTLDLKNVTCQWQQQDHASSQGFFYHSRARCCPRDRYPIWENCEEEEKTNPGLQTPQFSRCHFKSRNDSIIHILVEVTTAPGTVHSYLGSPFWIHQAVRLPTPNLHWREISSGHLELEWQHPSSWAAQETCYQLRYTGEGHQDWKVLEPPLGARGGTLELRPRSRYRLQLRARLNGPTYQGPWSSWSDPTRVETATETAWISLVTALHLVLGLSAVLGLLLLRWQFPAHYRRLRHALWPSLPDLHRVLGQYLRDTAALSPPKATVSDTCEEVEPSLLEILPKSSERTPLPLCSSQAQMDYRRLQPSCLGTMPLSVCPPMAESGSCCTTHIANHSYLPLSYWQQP

T2: rhu-c-Mpl (AA1-490-6H) (human, UniProt P40238 26-490)
T2 construct: Entire 490 amino acid extracellular domain with six C-terminal histidines, expressed in CHO cells; also called recombinant human c-Mpl protein; soluble c-Mpl
T2 sequence: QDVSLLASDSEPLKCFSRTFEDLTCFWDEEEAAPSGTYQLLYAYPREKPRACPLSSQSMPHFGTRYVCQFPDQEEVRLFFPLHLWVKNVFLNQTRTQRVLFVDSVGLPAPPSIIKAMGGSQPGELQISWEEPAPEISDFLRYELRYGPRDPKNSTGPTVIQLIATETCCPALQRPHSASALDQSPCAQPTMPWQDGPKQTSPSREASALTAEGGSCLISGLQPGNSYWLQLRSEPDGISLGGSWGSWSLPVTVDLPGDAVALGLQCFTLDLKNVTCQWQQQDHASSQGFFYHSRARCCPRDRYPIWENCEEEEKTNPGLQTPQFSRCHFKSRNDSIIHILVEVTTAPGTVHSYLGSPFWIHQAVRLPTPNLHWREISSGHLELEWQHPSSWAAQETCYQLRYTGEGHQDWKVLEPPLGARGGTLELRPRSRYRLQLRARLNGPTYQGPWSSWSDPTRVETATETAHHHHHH


Legend:
[1] = target: T1, human c-Mpl (full length, on cells); assay: cell-based or functional assay
[2] = target: T2, rhu-c-Mpl (AA1-490-6H); assay: solution-equilibrium Biacore with soluble rhu-c-Mpl, KinExA Pro fit
Description: The affinities of these anti-c-Mpl mAbs to the soluble c-Mpl protein were determined in a solution-based Biacore analysis. Briefly, a fixed amount of rhu-c-Mpl was incubated with various concentrations of anti-c-Mpl mAbs at room temperature for ˜4 hours before being run over the same anti-c-Mpl mAbs immobilized at high density on a CM5 surface. In this assay the binding signal is proportional to the concentration of free rhu-c-Mpl at equilibrium with a given antibody concentration. The dissociation equilibrium constant (KD) was obtained from nonlinear regression of the competition curves using an n-curve one-site homogeneous binding model (KinExATM Pro software).

[3] = target: T1, human c-Mpl (full length, on cells); assay: cell-based or functional assay; remark: listed apart in the source

IC50 (nM), inhibition of rhuTPO (26 pM)-driven proliferation of 32D-hu-c-Mpl cells (CellTiter-Glo) [1] [nM]	Kd [2] [nM]	IC50 (nM), inhibition of rhuTPO (26 pM)-driven proliferation of 32D-hu-c-Mpl cells (CellTiter-Glo) [3] [nM]	Binder
5.32	0.48		mAb 1.169 (antibody, IgG1, V domains shown, also called A6) VH: QVQLQQSGPELVKPGASVKISCKASGYGFSSSWMNWVKQRPGKGLEWIGRIYPGDGETSYNGEFKGKATLTADKSSSTAYMQLSSLTSEDSAVYFCASYYEGGYWGQGTLVTVSA VL: DIVMTQAAPSLPVTPGESVSISCRSSKSLLHSNGNTYLFWFLQRPGQSPHLLIYRMSNLASGVPDRFSGSGSGTAFTLRISRVEAEDVGVYYCMQHLEYPYTFGGGTKLEIKR
0.23	0.072		mAb 1.78 (antibody, IgG1, V domains shown, also called A3) VH: QVQLQQSGPELVKPGASVKMSCKASGYAFSSSWLNWVRQRPGKGLEWIGRIYPGDGENHYNGKFKGKATLTADKSSSTGYMQLSSLTSEDSAVYFCASYYEGGYWGQGTLITVSA VL: DIVMTQAAPSIPVTPGESVSISCRSDKSLLHSNGNTYLFWFLQRPGQSPQLLIYRMSNLASGVPDRFSGSGSGTAFTLRISGVEAEDVGVYYCMQHLEYPYTFGGGTKLEIK
1.25	0.45		mAb 1.36 (antibody, IgG1, V domains shown, also called A5) VH: QVQLQQSGPELVKPGASVKISCKASGYGFSNSWMNWVRQRPGKGLEWIGRIYPGDGETSYNGEFVGKATLTADKSSSTAYMHLSSLTSEDSAVYFCASYYEGGYWGQGTLVTVS VL: DIVMTQAAPSVPVTPGESVSISCRSSKSLLHSNGNTYLYWFLQRPGQSPQLLIYRMSNLASGVPDRFSGSGSGTAFTLRISRVEAEDVGVYYCMQHLEYPYTFGGGTKLEIKR
	0.01	0.05	mAb 1.75 (antibody, IgG2b, V domains shown, also called A2) VH: EVQLVESGGGLVQPKGSLKLSCAASGFSFNTYAMNWVRQAPGKGLEWIAHIRSKSNNFATYYADSVKDRFSISRDASENILFLQMNNLKTEDTAMYYCVRQGGDFPMDYWGQGTSVTVSS VL: QIVLTQSPAIMSASPGEKVTISCSASSSVSYMYWYQQKPGSSPKPWIYRTSNLASGVPARFSGSGSGTSYSLTISNMEAEDAAAYYCQQYHSYPTTFGGGTKLEVK
	0.036	0.12	mAb 1.111 (antibody, IgG1, V domains shown, also called A4) VH: DVQLQESGPGLVKPSQSLSLTCTVTGYSITIDYTWNWIRQFPGNKLEWMGYITYSGSTDYNPSLKSRSSITRDTSMNQFFLQLNSVTTEDTATYYCARLGRRYALDYWGQGTSVTVSS VL: DIQMTQSSSSFSVSLGDRVTITCKASEDIYIRLAWYQQKPGNAPRLLISAATSLETGIPSRFSGSGSGEDYTLTITSLQTEDVATYYCQQYWTTPWTFGGGTKLEIKR
	0.036	0.03	mAb 1.6 (antibody, IgG2b, V domains shown, An Alexa Fluor 647 conjugate was used for CD34+ cell staining; also called Ab 1.6.1; A1) VH: DVQLQESGPGLVKPSQSLSLTCTVTGYSITSDYTWNWIRQFPGNKLEWMGYITYSGSTSYNPSLKSRNSITRDTSKNQFFLQLNSVTTEDTATYYCARLGRRYTMDYWGQGTSVTVSS VL: DIQMTQSSSSFSVSLGDRVTITCMASEDIYIRLAWYQQKPGNAPRLLISAATSLETGVPSRFSGSGSGKDYTLSITSLQTEDVGTYYCQQYWSSPWTFGGGTKLEIN

Source: patent US20120269814A1 (Amgen, published 2012)
